# Data published in the RNAGym collection of RNA variant scans (doi:10.1073/pnas.2313332121).
# Variants at the floor of the assay were thinned out.
# B1: TPR 5TU (parent)
# chain: GGAUCUUCUCGAUCUAACAAAAAAGACAAAUCUGCCACAAAGCUUGAGAGCAUCUUCGGAUGCAGAGGCGGCAGCCUUCGGUGGCGCGAUAGCGCCAACGUUCUCAACUAUGACACGCAAAACGCGUGCUCCGUUGAAUGGAGUUUAUCAUG
# Variants of: B1
# Assay: polymerase ribozyme fitness, log enrichment relative to wild type (log ratio); higher = more active; in vitro selection for triplet polymerase activity
# Outline: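 Mutant libraries for each subunit of a heterodimeric triplet polymerase ribozyme were made by PCR and then transcribed. Each library underwent one round of in vitro selection in triplicate: annealing with a biotinylated primer, the partner subunit and triplets, frozen incubation at −7 °C, gel excision of extended constructs, streptavidin-bead capture and RT-PCR. Input and output libraries were Illumina-sequenced, and only genotypes with ≥10 input reads and ≥1 read per output were kept. Fitness is the logarithm, base 2, of genotype enrichment over wild-type enrichment, computed from inverse-variance-weighted replicate averages.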
row,Variant,polymerase ribozyme fitness (log ratio)
1,A17G C76A A119U,-0.0837
2,U15G C103G U151G,≤ -4.2
3,A17C C27U C85U G86U C123U G141A,-3.85
4,A16C A24U G58A G92U,-2.2
5,A16G U56C C76A,-0.363
6,A16C U31A,-0.733
7,A16C,-1.01
8,A16U,-1.62
9,A16G,-0.642
10,A17U G34U C43U C63A C87A A106C C108A,≤ -4.2
11,A17G C27U A41U,-1.51
12,A17U G94C,-1.63
13,A16U A19U G80A U144G,-2.53
14,A17C C85U A120G G124U G143C,-3.22
15,A16G A17U A26U A41U C96A U102A G143C,≤ -4.2
16,A16G A26U G65U C103G A107G C114G,≤ -4.2
17,A16U A22U A23G A60U C95U C108U A119G C123U,≤ -4.2
18,A16G A52C C87A U102A C118G C132U,≤ -4.2
19,A16C A22C U82G C85U A98C G136U,≤ -4.2
20,U15G G59C A73G C85A,-2.7
21,A16G A21U A97G,-1.74
22,A17C A24U G48C A89G C93G G128U,≤ -4.2
23,A16C A30U G58U A66U A73G,≤ -4.2
24,A17C G25C G62U,-3.17

row,Variant,polymerase ribozyme fitness (log ratio)
1,A17C G25C A30G U45A A49C G124U,-4.16
2,U15G C38U A41C A52U G59U G65C G141A,≤ -4.2
3,A17G A21U A49C G59C G74U C85G,≤ -4.2
4,A17G A30U G83A U101C G128U,≤ -4.2
5,A16U U56A A60U G141U,-2.12
6,A17U C32U A52C G84C U90C U109G,≤ -4.2
7,A16C A40C G80A G92U A113G U135C G140A,≤ -4.2
8,A16U A20G A37C C95G U102G A113U,≤ -4.2
9,A16U C54G C87A A98U,≤ -4.2
10,A17U U44A U55G G136A,≤ -4.2
11,A17G C57U C69A G100A,≤ -4.2
12,A17C C85G C149G,≤ -4.2
13,A16U C85U,-2.1
14,A16C A21C G50A C85U C125G,-2.99
15,A16C C108U A147U,-3.42
16,U15G G70A C87U U90C C93U,≤ -4.2
17,A16G U33G C93A C95A C103U A121G,≤ -4.2
18,A17G A41U C54U A73G,-1.46
19,A16U C38G U61A C75G G80A G100A G136U,≤ -4.2
20,A16U U31G G50A G58A C85U U104G A106U U134A,≤ -4.2
21,A16G G58A C129G,-4.19
22,U15G A39U G50C G70C G88U C105U,≤ -4.2
23,A16G C99U,-1.33
24,A17U G62U C85U G141U,-0.389

row,Variant,polymerase ribozyme fitness (log ratio)
1,A16U G84U,-3.5
2,A16C A60U A66C C76U U78C C93A,≤ -4.2
3,A17U A22U C35U C51U G83U,-1.87
4,A16U C75U G86A,-2.59
5,U15G G48A C116U G152A,-2.5
6,A16U A22U A37G C72U,-3.87
7,A16G C95U C96A G100U U101A C108A U139C U144A,≤ -4.2
8,A17G A47C U130A,-4.1
9,A16U C93A,-3.85
10,A16U C93U A106C,-3.19
11,A17U G62U G84U,-2.48
12,A17U A22U A26G C36G G67C C95A,≤ -4.2
13,A17U A60C G88C,≤ -4.2
14,A16C A21C A49C C54U C96U,-4.18
15,A16G G48C A52G,-1.13
16,A16U G50A G92U A98G C132G A142U,≤ -4.2
17,A17C A39G U44G C63A A73G A113G A121U G141A,≤ -4.2
18,A17G A41G C54U,0.908
19,A16U C87U A89U G140U G143A,≤ -4.2
20,A16U U31C C35U A37C C76G C105G G117A,≤ -4.2
21,A17G C85U,-1.27
22,A16C C32A A49U U102G C129G,≤ -4.2
23,A16U G92U C99G,-3.45
24,A17C U33G G71A C85U G88U U111C A142G U146C,≤ -4.2

row,Variant,polymerase ribozyme fitness (log ratio)
1,A16C A21U G59A G94A A98G,-2.66
2,A16G A40U G59C U104A,-1.85
3,A17C C38A G94A,0.661
4,A17U C18U A22C,-1.32
5,A16G C108U G126A,≤ -4.2
6,U15G C18A C54A G94A G117C C125A,-1.44
7,A17U A24U,0.106
8,A16U C18G G94A,-2.97
9,A17G U134A,-2.69
10,A16G A91G C118U A150U,-3.08
11,U15G G92U,-0.561
12,A17C U33C G42U U44A U56G,≤ -4.2
13,A16G A47G G50C G59A G83U C114A,≤ -4.2
14,A16U A41C G42A G65A A66G C87A U90G,≤ -4.2
15,A17G A39U C54G A64C A89C U90G A122U U139C U144A,≤ -4.2
16,A17G C27A A29U U55A A64G C79A C93U A98G G100U G136A,≤ -4.2
17,A16U U55A,-2.64
18,A16U A20U C54U G58C G59A C93U C114U U148A,≤ -4.2
19,A16U A24C C27U C85U G126U,≤ -4.2
20,A16U C36A G92U A150U,≤ -4.2
21,A16G G46U G84A C105U G133C A138G A142G,≤ -4.2
22,A16U U53A C57A C95A,-2.57
23,A17C C18A U33A G80C C87A C108A G152C,≤ -4.2
24,U15G A37U U56A C57A C123U,-1.55

row,Variant,polymerase ribozyme fitness (log ratio)
1,A16C U135A,-2.12
2,U15G C57A A98U U102A A120U A122U,-1.85
3,A17G A60G G84U C118A U146G,-2.3
4,A16U A73G A107G A119G,≤ -4.2
5,A17C C93G,-3.8
6,A17U C54U G84A,-0.832
7,U15G A29U C76A G83A,≤ -4.2
8,A16U A17C A24G A49G C76A C87A C99G,≤ -4.2
9,A16G C96A,-0.881
10,A16U A41U,-2.64
11,A16U A30U C87A,≤ -4.2
12,A17G G62U C87U A122G U127G C132G,≤ -4.2
13,A16C A19U C57G A73U A91U G140A U145A,≤ -4.2
14,A16C C38A C76U,-2.07
15,A17C G83C,-0.317
16,A16U C18A A22U G48U U56G A66G G84U U144A,≤ -4.2
17,U15G A41C C93U,-1.93
18,A17G G86A C93U A97U,0.0217
19,A16G G46A A73G G88U G94A C114G,≤ -4.2
20,A16U C76G G80C,≤ -4.2
21,A16C A22G U53A G92U,-2.34
22,U15G C57U G58C C76A,-0.888
23,A17U A37C G46A C85G C114U,≤ -4.2
24,A16U A37C A52G G84A G140C,≤ -4.2

row,Variant,polymerase ribozyme fitness (log ratio)
1,A16G A49G A73C A91G U144C,≤ -4.2
2,U15G A37U A52C U90C U148G,≤ -4.2
3,A17G A21C G46C G58U U135G,-4.12
4,A17U C18U G94C A115U,-3.41
5,A16G A37U G92U,-2.9
6,A17U U44G U56G G128U,≤ -4.2
7,A17U A40U A113C A115C C131U,≤ -4.2
8,A16U C51U G86U U104A C108A G124U,≤ -4.2
9,A17C C85A,-2.22
10,A16G C57A C85G A121U,-2.53
11,A16C A37C A39C C85U,≤ -4.2
12,A17U A21G A40G U55A A60G C95A U146C,-2.4
13,A17C G86U,-0.8
14,A17G A20U G84A A97U A115C,-3.45
15,A17C G94A A121U U145A U148C,-1.99
16,A17G A40G G50C C85A,≤ -4.2
17,A17U A23C A37C A41C C96A G124U,≤ -4.2
18,A17U C69G G80C A107U C131U U145G,≤ -4.2
19,U15G C38U,-0.133
20,U15G C85A,-1.35
21,A16U G25U C27U A28U C43U G94C C99G C125A U148C U151G,≤ -4.2
22,A17U A39C G80A G86U G117U U144C U148G,≤ -4.2
23,A16C G48A C51U C96G,-3.07
24,U15G C43U C57A C85G A106C,≤ -4.2

row,Variant,polymerase ribozyme fitness (log ratio)
1,A16U C57A G58U C75G C87A C99U A142C U144C,≤ -4.2
2,A16G U44A A73G C87U C93U,≤ -4.2
3,A17U A28C U31A,-3.71
4,U15G G25C A41C U55G C96A U139C G152U,≤ -4.2
5,A16C C32A A41U A60G G74U C93G A147U,≤ -4.2
6,A16G U53A U56G A89C C96U U111C,≤ -4.2
7,A17G C69A U82G G86C G117U G140C U145A,≤ -4.2
8,A16U C96A,-2.78
9,A17G C36G G83C C99U U104G C125U U145C A147C,≤ -4.2
10,A16C A20U A40U C54U G58U A60C,-4.15
11,A17G A39G C79G A89U C96G,-4.19
12,A17C A30U A60C G62A A66G G84A C118A,≤ -4.2
13,A16C A22U A26C A41U A52G C57U G58C G68U A91C C95G U139C G140A,≤ -4.2
14,A16U C93U C116U G117U A121G,-2.05
15,A17U A28G G86C A106C C116A A119U,≤ -4.2
16,A17C C116G A138G U144A,≤ -4.2
17,A16U C18G A21U A98G C105U,≤ -4.2
18,A17C A28U G88C U144C,-4.01
19,A16G A30U G81C C95U A110G,≤ -4.2
20,A17U A37C U61A C93A C99A C125A U144A,≤ -4.2
21,U15G G50U C93A G143A,-3.35
22,A17C C35U G92A A122G,-2.61
23,A16C G50A A64G C75A G83C C131A,≤ -4.2
